{
  "source": "paper PMC4370478",
  "about": "“Inhibition of Zn(II) Binding Type IA Topoisomerases by Organomercury Compounds and Hg(II)”",
  "binders": {"B1": {"name": "59-base stem-loop oligonucleotide (non-cleavable) (structured_DNA)", "DNA": "GCCCTGAAAGATTATGGAATGGGATTAGGGTAAAGGAAGAGAGCATAATCTTTCAGGGC"}},
  "target": "E. coli topoisomerase I (ETOP) (Escherichia coli, UniProt P06612 1-865)",
  "sequence (P06612 whole entry)": "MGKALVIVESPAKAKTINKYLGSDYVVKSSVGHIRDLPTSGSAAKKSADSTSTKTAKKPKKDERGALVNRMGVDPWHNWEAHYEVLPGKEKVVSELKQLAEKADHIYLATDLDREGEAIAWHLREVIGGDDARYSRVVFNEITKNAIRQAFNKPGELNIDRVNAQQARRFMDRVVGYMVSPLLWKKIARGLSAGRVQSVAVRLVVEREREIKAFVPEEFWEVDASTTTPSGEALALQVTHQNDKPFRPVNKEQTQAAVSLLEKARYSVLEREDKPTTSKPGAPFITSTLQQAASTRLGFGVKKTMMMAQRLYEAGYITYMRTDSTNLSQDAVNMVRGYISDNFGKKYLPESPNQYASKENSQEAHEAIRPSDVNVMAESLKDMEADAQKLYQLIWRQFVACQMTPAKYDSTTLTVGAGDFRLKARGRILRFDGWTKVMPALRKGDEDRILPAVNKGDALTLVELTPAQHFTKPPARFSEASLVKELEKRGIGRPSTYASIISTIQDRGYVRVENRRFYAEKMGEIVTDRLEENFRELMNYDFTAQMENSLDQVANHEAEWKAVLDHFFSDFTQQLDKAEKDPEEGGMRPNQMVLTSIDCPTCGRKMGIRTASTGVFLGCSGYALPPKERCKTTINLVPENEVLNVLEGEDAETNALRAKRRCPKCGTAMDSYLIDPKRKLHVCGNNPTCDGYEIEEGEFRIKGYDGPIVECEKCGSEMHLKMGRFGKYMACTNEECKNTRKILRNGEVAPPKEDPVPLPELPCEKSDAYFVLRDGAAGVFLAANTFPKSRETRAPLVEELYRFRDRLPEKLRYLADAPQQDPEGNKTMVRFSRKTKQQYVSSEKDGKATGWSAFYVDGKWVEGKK",
  "assay": "fluorescence anisotropy; 0.5 mM MgCl2; no inhibitor (Kd fitted, value not in the text held); 50 mM Tris-HCl pH 7.5, 100 mM NaCl, 0.1 mM EDTA, 0.5 mM MgCl2; 10-30 nM oligonucleotide; temperature not stated",
  "conditions": "label: 3' 6-carboxyfluorescein; hairpin, 16 bp stem",
  "data": [
    {"binder": "B1", "values": [
      {"measurement": "binding result", "result": "binds"}
    ]}
  ]
}
